Experimental data taken from the supplement of paper PMC9732359.
± gives the uncertainty stated by the source.

Assay: protein stability index of a GFP-peptide fusion (yeast GPS) (PSI 1-4); higher = more stable; sorted into four equal gates, so the index is relative within each strain
How it was run: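 Sequencing reads from sorted gates were used to score each peptide. The library consisted of tiled 17-residue yeast protein peptides fused downstream of GFP on a Cherry-expressing plasmid, pooled and carried in yeast. Mid-log cultures in leucine-free medium were split into four equal gates by GFP/Cherry ratio, and each gate's plasmids were PCR-amplified and Illumina-sequenced. The protein stability index adds up, over all gates, the read frequency multiplied by the gate number.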

Sequence	protein stability index (doa10∆)	protein stability index (pdr5∆)	protein stability index (san1∆)	protein stability index (ubr1∆)
LDELQWKSPEWIQVFGL [MED6]	2.24 ± 0.078	2.41 ± 0.053	2.62 ± 0.071	2.56 ± 0.066
HKNERRVLEIQTSLVRM [SKI6]	2.99 ± 0.091	2.63 ± 0.078	2.44 ± 0.13	2.96 ± 0.053
RKNDNANDHDESIDVDM [SMC3]	2.83 ± 0.24	2.72 ± 0.23	3.32 ± 0.11	3.19 ± 0.094
DYQVQGLNWLISLHENK [ISW2]	1.53 ± 0.052	2.15 ± 0.058	1.64 ± 0.078	2.19 ± 0.054
QNNNTLGGGGLFGQSQQ [YGR119C/NUP57]	3.43 ± 0.13	3.27 ± 0.29	3.18 ± 0.12	3.07 ± 0.087
KILITYGSSPKLLATST [SRB8]	1.22 ± 0.039	1.33 ± 0.039	1.48 ± 0.091	1.53 ± 0.042
LEASLNSITKDNIDYAP [YJL039C/NUP192]	2.7 ± 0.05	2.43 ± 0.041	2.47 ± 0.039	2.27 ± 0.026
AKRNLPHTTLVNECIAQ [CDC53]	2.37 ± 0.072	2.48 ± 0.059	2.65 ± 0.067	2.68 ± 0.04
KPVKVALIFIFFAYFIG [YJL039C/NUP192]	1.66 ± 0.042	1.4 ± 0.037	1.38 ± 0.064	1.4 ± 0.027
KTLVYLEKCEAEFKKRK [YCS4]	3.42 ± 0.28	3.69 ± 0.17	–	–
CAYTGTGDVLLIQDLLH [RPN1]	3.01 ± 0.059	2.88 ± 0.064	2.75 ± 0.065	2.8 ± 0.052
SLNFIPITASTSRVFAK [YML103C/NUP188]	–	1.58 ± 0.28	2.06 ± 0.26	–
YARADTHFLLNIYDQLR [RRP6]	2.54 ± 0.045	2.34 ± 0.042	2.44 ± 0.05	2.58 ± 0.027
TKSNRRVSHSDTNSSKP [SIR4]	2.97 ± 0.077	3.19 ± 0.085	2.99 ± 0.077	3.25 ± 0.053
MGGIREKKAEYFAKLRE [RPP0]	3.48 ± 0.081	3.37 ± 0.082	3.13 ± 0.061	3.55 ± 0.095
MANLSQIYTQRAYMRPL [SCL1]	1.66 ± 0.06	1.46 ± 0.074	1.47 ± 0.12	1.54 ± 0.043
LSIWIKNYPEYFLKVTF [IRR1]	1.88 ± 0.056	1.77 ± 0.037	2.2 ± 0.076	1.8 ± 0.047
IGGLIPQWKRHLEEYGY [YCS4]	2.47 ± 0.068	2.83 ± 0.065	1.9 ± 0.14	2.9 ± 0.057
ELFKGYLADDIDADSLE [RPL5]	3.02 ± 0.086	3.21 ± 0.076	3.23 ± 0.064	3.17 ± 0.087
AQDEEIHKQIVIEMKRC [UBP6]	–	–	3.26 ± 0.066	3.2 ± 0.14
DPETTATQKESLEMVPK [RGR1]	3.12 ± 0.063	3.07 ± 0.054	2.94 ± 0.048	3.11 ± 0.046
VSNILSAFKFIHTQLSE [YJL039C/NUP192]	2.19 ± 0.061	1.92 ± 0.048	1.47 ± 0.094	1.58 ± 0.037
YWQFNGVIALGQFVTLG [RMP1]	3.23 ± 0.094	2.79 ± 0.086	2.11 ± 0.086	2.91 ± 0.055
IQSAESIKSQKEEISDQ [SWI3]	2.4 ± 0.26	3.08 ± 0.14	2.58 ± 0.098	2.85 ± 0.11
SNSANVSSPESEKNKRQ [ITC1]	2.93 ± 0.06	3.1 ± 0.045	2.95 ± 0.036	3.09 ± 0.033
ERDSYKLLASTEENKAN [YIL149C/MLP2]	2.76 ± 0.054	2.77 ± 0.047	2.84 ± 0.046	3.06 ± 0.034
KERSDGKRHIFDVNTLC [CDC53]	1.27 ± 0.052	1.76 ± 0.062	1.26 ± 0.13	1.92 ± 0.085
